Earlier results on one substance are cited in PMC6116012.

The target in data set [1] is FEN1 (Homo sapiens) (UniProt P39748).
For data set [2], the target named is PAF15 extended PIP-box peptide PIP-box (Homo sapiens) (UniProt Q15004).
The target of data set [3] is PAF15 (Homo sapiens) (UniProt Q15004).

UniProt P39748, sequence (P39748 whole entry): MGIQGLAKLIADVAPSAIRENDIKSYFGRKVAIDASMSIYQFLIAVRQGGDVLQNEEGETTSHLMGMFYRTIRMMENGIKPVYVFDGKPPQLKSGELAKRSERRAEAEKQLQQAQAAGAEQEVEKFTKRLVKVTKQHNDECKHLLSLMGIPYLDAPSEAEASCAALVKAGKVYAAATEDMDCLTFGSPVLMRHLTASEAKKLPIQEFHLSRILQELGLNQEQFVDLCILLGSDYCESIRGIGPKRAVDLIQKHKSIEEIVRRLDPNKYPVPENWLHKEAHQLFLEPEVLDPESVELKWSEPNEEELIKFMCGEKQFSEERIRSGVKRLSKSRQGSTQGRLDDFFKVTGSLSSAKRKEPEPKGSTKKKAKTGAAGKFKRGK

One may read the Kd as the constant that tells how readily two partners part at equilibrium. As to PCNA (from UniProt P12004), the Kd was 60 nM in data set [1], 5.6 µM in data set [2] and 1100 nM in data set [3].
